Reference: patent publication US20140274782A1, “AFFINITY REAGENTS AND METHODS FOR DETECTION, PURIFICATION, AND PROTEOMIC ANALYSIS OF METHYLATED PROTEINS” (The Board of Trustees of the Leland Stanford Junior …, priority 2013, published 2014)

T1: G9a and GLP (Homo sapiens, UniProt Q96KQ7+Q9H9B1)
T1 sequence (Q96KQ7 2-1210 limits assumed): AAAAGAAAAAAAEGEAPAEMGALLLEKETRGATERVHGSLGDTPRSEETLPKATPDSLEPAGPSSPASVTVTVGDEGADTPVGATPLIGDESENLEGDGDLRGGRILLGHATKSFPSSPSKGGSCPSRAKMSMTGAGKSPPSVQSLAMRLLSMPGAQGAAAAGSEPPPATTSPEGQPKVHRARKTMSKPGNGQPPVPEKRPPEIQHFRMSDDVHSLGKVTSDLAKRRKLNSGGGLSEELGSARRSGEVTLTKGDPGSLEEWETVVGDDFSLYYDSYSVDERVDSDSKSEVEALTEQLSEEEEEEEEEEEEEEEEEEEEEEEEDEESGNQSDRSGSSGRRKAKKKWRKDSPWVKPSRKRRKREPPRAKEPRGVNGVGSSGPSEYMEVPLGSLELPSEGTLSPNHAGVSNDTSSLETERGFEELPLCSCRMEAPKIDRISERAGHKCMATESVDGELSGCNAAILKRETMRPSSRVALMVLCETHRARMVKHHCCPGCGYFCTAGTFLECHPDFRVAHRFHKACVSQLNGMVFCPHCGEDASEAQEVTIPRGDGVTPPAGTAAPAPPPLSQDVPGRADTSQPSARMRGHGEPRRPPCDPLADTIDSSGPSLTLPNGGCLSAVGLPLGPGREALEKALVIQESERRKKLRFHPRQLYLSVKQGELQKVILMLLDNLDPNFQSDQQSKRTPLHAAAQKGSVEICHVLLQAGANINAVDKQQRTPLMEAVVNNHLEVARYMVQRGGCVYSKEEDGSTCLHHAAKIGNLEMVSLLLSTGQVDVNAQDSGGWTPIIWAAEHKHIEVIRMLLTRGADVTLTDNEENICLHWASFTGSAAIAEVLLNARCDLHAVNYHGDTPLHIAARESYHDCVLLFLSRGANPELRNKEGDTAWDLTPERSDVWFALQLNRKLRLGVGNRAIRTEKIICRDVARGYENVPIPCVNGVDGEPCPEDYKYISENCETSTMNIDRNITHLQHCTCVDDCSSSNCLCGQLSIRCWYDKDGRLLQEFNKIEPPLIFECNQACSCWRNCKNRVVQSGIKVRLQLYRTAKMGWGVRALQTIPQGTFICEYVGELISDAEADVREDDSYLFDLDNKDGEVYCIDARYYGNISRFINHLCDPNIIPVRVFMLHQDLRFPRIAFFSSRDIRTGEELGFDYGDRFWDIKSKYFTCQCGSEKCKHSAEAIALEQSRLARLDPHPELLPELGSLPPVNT
T1 sequence (Q9H9B1 2-1298 limits assumed): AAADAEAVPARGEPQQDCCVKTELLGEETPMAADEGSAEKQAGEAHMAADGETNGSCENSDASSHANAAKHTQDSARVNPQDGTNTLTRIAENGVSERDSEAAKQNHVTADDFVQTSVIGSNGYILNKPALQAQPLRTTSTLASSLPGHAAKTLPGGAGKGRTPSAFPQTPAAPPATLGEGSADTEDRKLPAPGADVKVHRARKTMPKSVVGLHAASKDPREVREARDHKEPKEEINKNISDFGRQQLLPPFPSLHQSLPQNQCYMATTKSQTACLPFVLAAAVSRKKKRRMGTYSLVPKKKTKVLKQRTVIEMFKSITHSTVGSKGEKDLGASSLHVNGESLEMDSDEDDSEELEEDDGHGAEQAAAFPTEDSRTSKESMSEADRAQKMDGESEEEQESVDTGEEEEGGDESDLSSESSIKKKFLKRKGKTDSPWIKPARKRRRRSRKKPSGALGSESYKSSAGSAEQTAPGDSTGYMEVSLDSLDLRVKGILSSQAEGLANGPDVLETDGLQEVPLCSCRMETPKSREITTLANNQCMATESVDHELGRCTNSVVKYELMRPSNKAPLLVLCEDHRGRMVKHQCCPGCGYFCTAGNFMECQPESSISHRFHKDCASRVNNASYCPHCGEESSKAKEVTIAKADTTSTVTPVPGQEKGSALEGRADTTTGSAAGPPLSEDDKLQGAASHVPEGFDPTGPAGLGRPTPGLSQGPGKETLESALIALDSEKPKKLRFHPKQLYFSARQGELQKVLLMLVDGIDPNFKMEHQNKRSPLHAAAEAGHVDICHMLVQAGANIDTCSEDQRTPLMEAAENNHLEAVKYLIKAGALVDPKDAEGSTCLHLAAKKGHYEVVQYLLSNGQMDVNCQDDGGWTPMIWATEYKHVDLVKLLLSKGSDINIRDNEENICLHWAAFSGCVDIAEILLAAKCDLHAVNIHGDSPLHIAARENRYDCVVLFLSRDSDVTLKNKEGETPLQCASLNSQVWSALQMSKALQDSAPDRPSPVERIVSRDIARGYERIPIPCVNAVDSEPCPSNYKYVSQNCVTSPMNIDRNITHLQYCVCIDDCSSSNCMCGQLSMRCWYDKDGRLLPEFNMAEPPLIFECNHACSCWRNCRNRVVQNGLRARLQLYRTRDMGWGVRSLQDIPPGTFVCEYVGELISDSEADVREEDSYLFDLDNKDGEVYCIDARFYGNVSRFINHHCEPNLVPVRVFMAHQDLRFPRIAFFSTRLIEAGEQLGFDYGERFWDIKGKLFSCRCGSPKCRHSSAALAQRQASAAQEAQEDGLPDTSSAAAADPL

B1: SFPQ (protein, UniProt P23246 1-707, looked up)
Splicing factor, proline- and …: MSRDRFRSRGGGGGGFHRRGGGGGRGGLHDFRSPPPGMGLNQNRGPMGPGPGQSGPKPPIPPPPPHQQQQQPPPQQPPPQQPPPHQPPPHPQPHQQQQPPPPPQDSSKPVVAQGPGPAPGVGSAPPASSSAPPATPPTSGAPPGSGPGPTPTPPPAVTSAPPGAPPPTPPSSGVPTTPPQAGGPPPPPAAVPGPGPGPKQGPGPGGPKGGKMPGGPKPGGGPGLSTPGGHPKPPHRGGGEPRGGRQHHPPYHQQHHQGPPPGGPGGRSEEKISDSEGFKANLSLLRRPGEKTYTQRCRLFVGNLPADITEDEFKRLFAKYGEPGEVFINKGKGFGFIKLESRALAEIAKAELDDTPMRGRQLRVRFATHAAALSVRNLSPYVSNELLEEAFSQFGPIERAVVIVDDRGRSTGKGIVEFASKPAARKAFERCSEGVFLLTTTPRPVIVEPLEQLDDEDGLPEKLAQKNPMYQKERETPPRFAQHGTFEYEYSQRWKSLDEMEKQQREQVEKNMKDAKDKLESEMEDAYHEHQANLLRQDLMRRQEELRRMEELHNQEMQKRKEMQLRQEEERRRREEEMMIRQREMEEQMRRQREESYSRMGYMDPRERDMRMGGGGAMNMGDPYGSGGQKFPPLGGGGGIGYEANPGVPPATMSGSMMGSDMRTERFGQGGAGPVGGQGPRGMGPGTPAGYGRGREEYEGPNKKPRF
B2: C14orf166 (protein, UniProt Q9Y224 1-244, looked up)
RNA transcription, …: MFRRKLTALDYHNPAGFNCKDETEFRNFIVWLEDQKIRHYKIEDRGNLRNIHSSDWPKFFEKYLRDVNCPFKIQDRQEAIDWLLGLAVRLEYGDNAEKYKDLVPDNSKTADNATKNAEPLINLDVNNPDFKAGVMALANLLQIQRHDDYLVMLKAIRILVQERLTQDAVAKANQTKEGLPVALDKHILGFDTGDAVLNEAAQILRLLHIEELRELQTKINEAIVAVQAIIADPKTDHRLGKVGR
B3: DDX17 (protein, UniProt Q92841 1-729, looked up)
Probable ATP-dependent RNA …: MPTGFVAPILCVLLPSPTREAATVASATGDSASERESAAPAAAPTAEAPPPSVVTRPEPQALPSPAIRAPLPDLYPFGTMRGGGFGDRDRDRDRGGFGARGGGGLPPKKFGNPGERLRKKKWDLSELPKFEKNFYVEHPEVARLTPYEVDELRRKKEITVRGGDVCPKPVFAFHHANFPQYVMDVLMDQHFTEPTPIQCQGFPLALSGRDMVGIAQTGSGKTLAYLLPAIVHINHQPYLERGDGPICLVLAPTRELAQQVQQVADDYGKCSRLKSTCIYGGAPKGPQIRDLERGVEICIATPGRLIDFLESGKTNLRRCTYLVLDEADRMLDMGFEPQIRKIVDQIRPDRQTLMWSATWPKEVRQLAEDFLRDYTQINVGNLELSANHNILQIVDVCMESEKDHKLIQLMEEIMAEKENKTIIFVETKRRCDDLTRRMRRDGWPAMCIHGDKSQPERDWVLNEFRSGKAPILIATDVASRGLDVEDVKFVINYDYPNSSEDYVHRIGRTARSTNKGTAYTFFTPGNLKQARELIKVLEEANQAINPKLMQLVDHRGGGGGGGGRSRYRTTSSANNPNLMYQDECDRRLRGVKDGGRRDSASYRDRSETDRAGYANGSGYGSPNSAFGAQAGQYTYGQGTYGAAAYGTSSYTAQEYGAGTYGASSTTSTGRSSQSSSQQFSGIGRSGQQPQPLMSQQFAQPPGATNMIGYMGQTAYQYPPPPPPPPPSRK

Tested on: 3×MBT domain of L3MBTL1
Assay: Triple SILAC pull-down, 3xMBT/3xMBTD355N ratio (cytoplasmic, nuclear and chromatin fractions of 293T cells);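 also: proteins quantified with MaxQuant, requiring at least two unique peptides and quantification in both label directions, normalized to the mean of proteins from a digested loading control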
Assay type: binding, human
Details: SILAC ratio, pull-down 3xMBT vs 3xMBTD355N; experiment with UNC0638 in heavy SILAC media

Molecule | 3xMBT/D355N UNC Heavy
B1 | 3.19 log base 2
B2 | 3.09 log base 2
B3 | 2.61 log base 2

Same assay, conditions: SILAC ratio, pull-down 3xMBT vs 3xMBTD355N; experiment with UNC0638 in light SILAC media

Molecule | 3xMBT/D355N UNC Light
B1 | 3.86 log base 2
B2 | 3.13 log base 2
B3 | 2.86 log base 2

Molecular target: T1, G9a and GLP
Assay: Triple SILAC pull-down after UNC0638 treatment of 293T cells, DMSO/UNC0638 ratio of protein captured by 3×MBT;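 also: mass spectrometry (Q-Exactive) SILAC quantitation, DMSO/UNC0638 ratio computed after subtracting 3×MBTD355N mutant pull-down background, only proteins with at least twofold 3×MBT over mutant signal considered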
Assay type: cell-based
Design: cells were treated for 24 hours with UNC0638 at 2.5 μM or DMSO vehicle control; endogenous in cells; host or cells: HEK 293T
Details: SILAC ratio DMSO/UNC0638 of protein pulled down with 3xMBT; UNC0638 in heavy SILAC media
Procedure: For UNC0638 treatments cells were treated for 24 hours with UNC0638 at 2.5 μM or DMSO vehicle control. One experiment treated cells in light media with UNC0638, the other treated cells in heavy media. Both experiments included cells in medium media treated with DMSO for negative control pull-down with 3×MBTD355N.
UNC0638 treatment experiments used a Q-Exactive mass spectrometer (ThermoFisher Scientific). A 25 cm HPLC column with 3 μm Reliasil (Orochem) was used to separate peptides over a 4 hour gradient from 0 to 75% acetonitrile. Ions were generated using a custom nanospray source flowing at 250 nL/minute. Mass spectrometry settings were 70,000 MS1 resolution, data dependent selection of up to 20 precursor ions per cycle, dynamic exclusion of 30 seconds and isolation window of 2 m/z.
For UNC0638 experiments the treated vs. untreated ratio was determined by subtracting the value from 3×MBTD355N prior to dividing values from the light and heavy channels. Only proteins showing a two-fold signal to background ratio (3×MBT/3×MBTD355N) were evaluated as potential G9a/GLP substrates.

Molecule | Relative to UNC0638 UNC Heavy
B1 | 0.08 log base 2
B2 | 0.09 log base 2
B3 | 0.21 log base 2

Same assay, conditions: SILAC ratio DMSO/UNC0638 of protein pulled down with 3xMBT; UNC0638 in light SILAC media

Molecule | Relative to UNC0638 UNC Light
B1 | 0.25 log base 2
B2 | 0.24 log base 2
B3 | 0.12 log base 2

Same assay, conditions: average of UNC Light and UNC Heavy experiments

Molecule | Relative to UNC0638 Average
B1 | 0.17 log base 2
B2 | 0.16 log base 2
B3 | 0.16 log base 2
